{"source": "patent US9512196B2", "about": "“Short-form human MD-2 as a negative regulator of toll-like receptor 4 signaling” (Cedars-Sinai Medical Center, priority 2008, dated 2016)", "molecules": {"B1": {"name": "MD-2s: alternatively spliced isoform of human MD-2 lacking exon 2, with D38G substitution; expressed and secreted protein sequences in Table 1 (protein, listed as Homo sapiens)", "chain 1": "MLPFLFFSTLFSSIFTEAQKQYWVCNSSDASISYTYCGRDLKQLYFNLYITVNTMNLPKRKEVICRGSDDDYSFCRALKGETVNTTISFSFKGIKFSKGKYKCVVEAISGSPEEMLFCLEFVILHQPNSN", "chain 2": "EAQKQYWVCNSSDASISYTYCGRDLKQLYFNLYITVNTMNLPKRKEVICRGSDDDYSFCRALKGETVNTTISFSFKGIKFSKGKYKCVVEAISGSPEEMLFCLEFVILHQPNSN"}}, "key": {"TLR4": {"molecular_target": "T1, TLR4 (Homo sapiens, UniProt O00206)", "T1 construct": "expressed in transfected cells; host or cells: HEK293", "T1 sequence (O00206 24-839)": "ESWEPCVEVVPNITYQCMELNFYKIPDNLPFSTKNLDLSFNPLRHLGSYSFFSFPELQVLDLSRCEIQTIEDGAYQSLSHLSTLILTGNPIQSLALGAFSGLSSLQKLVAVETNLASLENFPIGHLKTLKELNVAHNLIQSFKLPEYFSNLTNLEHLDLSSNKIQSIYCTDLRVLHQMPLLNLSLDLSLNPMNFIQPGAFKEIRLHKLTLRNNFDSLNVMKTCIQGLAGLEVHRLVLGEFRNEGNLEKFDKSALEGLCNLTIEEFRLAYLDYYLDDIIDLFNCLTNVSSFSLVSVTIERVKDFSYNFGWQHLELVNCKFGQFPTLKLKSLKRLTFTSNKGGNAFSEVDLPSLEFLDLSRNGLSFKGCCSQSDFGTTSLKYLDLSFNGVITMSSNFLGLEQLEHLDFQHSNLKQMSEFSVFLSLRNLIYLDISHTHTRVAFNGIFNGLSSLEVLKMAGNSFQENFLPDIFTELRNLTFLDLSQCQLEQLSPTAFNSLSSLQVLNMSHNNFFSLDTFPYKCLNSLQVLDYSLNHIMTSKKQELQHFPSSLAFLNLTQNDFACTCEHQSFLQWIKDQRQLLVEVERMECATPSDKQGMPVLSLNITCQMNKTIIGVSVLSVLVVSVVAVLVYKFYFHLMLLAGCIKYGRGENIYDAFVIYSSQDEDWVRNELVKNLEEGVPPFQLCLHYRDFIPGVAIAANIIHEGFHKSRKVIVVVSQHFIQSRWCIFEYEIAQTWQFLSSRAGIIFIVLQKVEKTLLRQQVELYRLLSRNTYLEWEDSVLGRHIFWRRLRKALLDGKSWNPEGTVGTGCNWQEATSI", "assay": "NF-κB luciferase reporter in HEK293 cells expressing TLR4, LPS stimulation", "assay_type": "cell-based", "conditions": "for LPS-dependent NF-κB activation conferred by soluble protein: culture supernatants added to HEK293 cells stably transfected with TLR4 and NF-κB luciferase reporter; for LPS-mediated NF-κB activation on transient expression: plasmid transfected with CD14 into HEK293 TLR4/NF-κB reporter cells, LPS 250 ng/ml 6 h", "procedure": "(A) HEK-293 cells stably transfected with TLR4 and a NF-κB reporter gene were treated with supernatants containing either MD-2 or MD-2s as described in the examples herein. Cells were left untreated or stimulated with LPS for 24 h. Mean relative stimulation of luciferase activity±S.D. for a representative experiment, each performed in triplicate, is shown. (B) HEK-293 cells stably transfected with TLR4 and a NF-κB reporter gene were transiently transfected with plasmids encoding for either MD-2, MD-2s or CD14 as shown. 24 h later, cells were left untreated or stimulated with LPS (250 ng/ml) for 6 h. Mean relative stimulation of luciferase activity±SD for a representative experiment, each performed in triplicate, is shown. (C) and (D) Supernatants were also collected and measured for IL-8 secretion.\n(A) HEK293 cells were transiently transfected with plasmids encoding TLR4 and a NF-κB reporter gene in combination with MD-2 and MD-2s as indicated. 24 h later, cells were left untreated or incubated with LPS (250 ng/ml) for 5 h. Mean relative stimulation of luciferase activity±S.D. for a representative experiment from three separate experiments, each performed in triplicate, is shown. (B) HEK-293 cells stably transfected with TLR4 and a NF-κB reporter gene were treated with supernatants containing either MD-2 and MD-2s as depicted and left untreated or incubated with LPS for 24 h. Mean relative stimulation of luciferase activity±S.D. for a representative experiment from three separate experiments, each performed in triplicate, is shown.\nHEK293 cells were transiently transfected with the expression vectors noted in combination with constructs encoding the NF-κB- and IL-8-luciferase reporter gene, and either the β-galactosidase gene or the phRL-TK report gene to normalize for transfection efficiency. In all cases, total DNA concentration was kept constant by supplementation with empty vector control. Following overnight incubation, cells were stimulated for 6 hours with 50 ng/ml LPS and then lysed, and luciferase activity was measured as described previously (Ohta et al. (2004) BIOCHEM BIOPHYS RES COMMUN 323, 1103-1108). Data are shown as mean±SD of three or more independent experiments and are reported as a percentage of LPS-stimulated NF-κB and IL-8 promoter activity, or relative luciferase activity.\nThe requirement for MD-2s in LPS mediated NF-κB activation was assessed. It has been shown that the soluble form of wild-type MD-2 confers LPS responsiveness to cells expressing TLR4; therefore, it was investigated if soluble MD-2s was also bioactive. Culture supernatants were obtained from HEK293 cells transiently expressing control vector, MD-2, or MD-2s, and incubated with HEK293 cells stably transfected with TLR4 and an NF-κB-dependent luciferase reporter gene.\nMD-2s was tested to see if it needed to be transiently expressed in TLR4 reporter cells in order to mediate NF-κB activation following LPS stimulation. HEK293 cells stably transfected with TLR4 and an NF-κB-dependent luciferase reporter gene were transiently transfected with plasmids encoding CD14 in combination with either MD-2 or MD-2s, and subsequently treated with LPS.\nHEK293 cells were transiently transfected with plasmids encoding CD14, TLR4, and wild-type MD-2 in conjunction with a plasmid encoding the NF-κB-dependent luciferase reporter gene in the presence or absence of a plasmid encoding MD-2s. […] Furthermore, we assessed the inhibitory role of soluble MD-2s following LPS stimulation. HEK293 cells stably transfected with TLR4 and an NF-κB-dependent luciferase reporter gene were incubated with supernatants obtained from HEK293 cells transiently expressing a constant amount of MD-2 with increasing concentrations of MD-2s."}, "TLR4-expressing cells": {"system": "TLR4-expressing cells", "assay": "Surface staining of TLR4-mCitrine HEK293T cells (flow cytometry, confocal imaging)", "assay_type": "cell-based, human", "conditions": "myc-tagged protein transfected into TLR4-mCitrine HEK293T cells", "source_text": "HEK293T cells stably expressing fluorescent TLR4-mCitrine were transiently transfected with myc-tagged wild-type MD-2 or MD-2s and surface-stained with anti-myc antibody. (a) Cells analyzed by flow cytometry were gated to select single cells and the TLR4-positive population. Anti-myc staining of TLR4-mCitrine positive cells expressing MD-2 (top panel, thick line) or MD-2s (middle panel, thick line) and untransfected cells (thin line) is shown. […] Co-localization of TLR4 and MD-2 isoforms on the cell surface is visualized in yellow.\nHEK293T cells were retrovirally transduced to generate a cell line stably expressing TLR4-mCitrine. TLR4-mCitrine cells in 12-well dishes were transfected with 300 ng of plasmid encoding myc-tagged MD2 or MD2S using GeneJuice lipofection reagent (Novagen) and cultured overnight. Cells were dislodged by scraping, washed once with cold PBS and incubated with a 1:50 dilution of anti-myc Alexa 647-conjugated antibody (AbD Serotec) at 4° C. for 30 minutes. Cells were washed four times with PBS for and fluorescence was assessed with an LSR II flow cytometer (BD Biosciences) running FACS Diva software (BD Biosciences). Data was processed using FlowJo software v8.6.3 (Tree Star).\nTLR4-mCitrine cells were cultured on glass-bottom confocal dishes (MatTek) coated with collagen. […]"}, "[1]": {"system": "lung inflammation induced by LPS", "assay": "LPS-induced lung inflammation in mice after in vivo plasmid transfection", "design": "species or system mouse", "procedure": "(A) MD-2s expression can be detected following in vivo transfection. RNA was isolated from lung tissue of wild-type mice at 48 h post in vivo transfection with control vector (lane 1), Myc-MD2 (lane 2) or a plasmid encoding MycMD-2s (lane 3) and reverse transcribed into cDNA. RT-PCR using human MD-2-specific primers (lanes 1-3) or murine GAPDH primers (lanes 4-6), was then performed. (B-E) Wild-type mice were transfected with control vector (EV, open bars) or a plasmid encoding MD-2s (black bars) 48 h before being challenged intratracheally with PBS or 10 μg of LPS, for 24 h. MD-2s expression reduced (B) IL-6 concentration in bronchoalveolar lavage fluid (BALF), (C) KC concentration in the lung homogenate, and (D) recruitment of polymorphonuclear leukocytes (PMN) into the lung."}, "[2]": {"conditions": "plasmid encoding MD-2s 48 h before 10 μg LPS intratracheally, 24 h, vs control vector"}}}
{"molecule": "MD-2: full-length human wild-type MD-2, co-receptor of TLR4 [reference compound]", "values": [{"measurement": "LPS-dependent NF-κB activation conferred by soluble protein", "setting": "TLR4; LPS 24 h", "value": "strongly activated NF-κB"}, {"measurement": "LPS-mediated NF-κB activation on transient expression", "setting": "TLR4", "value": "activated NF-κB"}, {"measurement": "Binding to the surface of TLR4-expressing cells", "setting": "TLR4-expressing cells", "value": "bind to the surface of TLR4-expressing cells"}]}
{"molecule": "B1", "values": [{"measurement": "Effect on LPS-induced NF-κB activation mediated by MD-2/TLR4", "setting": "TLR4; MD-2s plasmid co-transfected with CD14, TLR4, wild-type MD-2 and reporter, LPS 250 ng/ml 5 h", "value": "significantly inhibited"}, {"measurement": "LPS-dependent NF-κB activation conferred by soluble protein", "setting": "TLR4; LPS 24 h", "value": "could not confer LPS responsiveness"}, {"measurement": "LPS-mediated NF-κB activation on transient expression", "setting": "TLR4", "value": "unable to induce LPS-mediated NF-κB activation"}, {"measurement": "Effect of soluble form on LPS-induced NF-κB activation", "setting": "TLR4; supernatants with constant MD-2 and increasing MD-2s on TLR4/NF-κB reporter cells, LPS 24 h", "value": "inhibits NF-κB activation"}, {"measurement": "Binding to the surface of TLR4-expressing cells", "setting": "TLR4-expressing cells", "value": "bind to the surface of TLR4-expressing cells"}, {"measurement": "Percentage of GR-1+CD11b+ cells in the lung following LPS challenge", "setting": "[1]; flow cytometry, control without MD-2s expression 66.7%", "value": 26.1, "unit": "%"}, {"measurement": "IL-6 concentration in bronchoalveolar lavage fluid (BALF)", "setting": "[1]; [2]", "value": "reduced"}, {"measurement": "KC concentration in the lung homogenate", "setting": "[1]; [2]", "value": "reduced"}, {"measurement": "Recruitment of polymorphonuclear leukocytes (PMN) into the lung", "setting": "[1]; [2]", "value": "reduced"}]}
